Measured values published in article PMC11241748, “DNA Repair Protein XRCC1 Stimulates Activity of DNA Polymerase λ under Conditions of Microphase Separation”.

Target: XRCC1 (UniProt P18887 1-633)
Assay: DLS (DNA-induced higher-order assembly); elevated DNA concentration; Rh ~135 to ~740 nm vs 6.7 nm without DNA; DLS and microscopy buffer not given in the material; activity assay: 50 mM Tris-HCl pH 7.5, 5 mM Mg2+, 0.5 mM DTT, 0.25 mg/mL BSA, 37 °C. Kd values in Table 1 a
Settings: protein: recombinant; tags: His-tag; chain copies: 2; label: 5'-32P on upstream strand as printed; 1-nt gap (template G) between strands 1 and 2, both paired to strand 3; blunt outer ends

B1: gap-DNA (dsDNA)
DNA 1: GGCGATTAAGTTGGG
DNA 2: AACGTCAGGGTCTTCC
DNA 3: GGAAGACCCTGACGTTGCCCAACTTAATCGCC
modifications: 5'-phosphate on downstream strand (5' margin of gap)
  binding result: binds
